Laboratory results reported in patent US12428633B2, “Inducible dimerization of recombinases” (TRUSTEES OF BOSTON UNIVERSITY, priority 2016, dated 2025).

B1: Flp 396: Flp (SEQ ID NO: 1) split into aa 1-396 and 397-423, fused to CIDD pair (protein)
chain 1: MSQFDILCKTPPKVLVRQFVERFERPSGEKIASCAAELTYLCWMITHNGTAIKRATFMSYNTIISNSLSFDIVNKSLQFKYKTQKATILEASLKKLIPAWEFTIIPYNGQKHQSDITDIVSSLQLQFESSEEADKGNSHSKKMLKALLSEGESIWEITEKILNSFEYTSRFTKTKTLYQFLFLATFINCGRFSDIKNVDPKSFKLVQNKYLGVIIQCLVTETKTSVSRHIYFFSARGRIDPLVYLDEFLRNSEPVLKRVNRTGNSSSNKQEYQLLKDNLVRSYNKALKKNAPYPIFAIKNGPKSHIGRHLMTSFLSMKGLTELTNVVGNWSDKRASAVARTTYTHQITAIPDHYFALVSRYYAYDPISKEMIALKDETNPIEEWQHIEQLKGSAEG
chain 2: SIRYPAWNGIISQEVLDYLSSYINRRI
modifications: fused to CIDD pair
B2: Flp 168: Flp (SEQ ID NO: 1) split into aa 1-168 and 169-423, fused to CIDD pair (protein)
chain 1: MSQFDILCKTPPKVLVRQFVERFERPSGEKIASCAAELTYLCWMITHNGTAIKRATFMSYNTIISNSLSFDIVNKSLQFKYKTQKATILEASLKKLIPAWEFTIIPYNGQKHQSDITDIVSSLQLQFESSEEADKGNSHSKKMLKALLSEGESIWEITEKILNSFEYT
chain 2: SRFTKTKTLYQFLFLATFINCGRFSDIKNVDPKSFKLVQNKYLGVIIQCLVTETKTSVSRHIYFFSARGRIDPLVYLDEFLRNSEPVLKRVNRTGNSSSNKQEYQLLKDNLVRSYNKALKKNAPYPIFAIKNGPKSHIGRHLMTSFLSMKGLTELTNVVGNWSDKRASAVARTTYTHQITAIPDHYFALVSRYYAYDPISKEMIALKDETNPIEEWQHIEQLKGSAEGSIRYPAWNGIISQEVLDYLSSYINRRI
modifications: fused to CIDD pair
B3: Flp 374: Flp (SEQ ID NO: 1) split into aa 1-374 and 375-423, fused to CIDD pair (protein)
chain 1: MSQFDILCKTPPKVLVRQFVERFERPSGEKIASCAAELTYLCWMITHNGTAIKRATFMSYNTIISNSLSFDIVNKSLQFKYKTQKATILEASLKKLIPAWEFTIIPYNGQKHQSDITDIVSSLQLQFESSEEADKGNSHSKKMLKALLSEGESIWEITEKILNSFEYTSRFTKTKTLYQFLFLATFINCGRFSDIKNVDPKSFKLVQNKYLGVIIQCLVTETKTSVSRHIYFFSARGRIDPLVYLDEFLRNSEPVLKRVNRTGNSSSNKQEYQLLKDNLVRSYNKALKKNAPYPIFAIKNGPKSHIGRHLMTSFLSMKGLTELTNVVGNWSDKRASAVARTTYTHQITAIPDHYFALVSRYYAYDPISKEMIAL
chain 2: KDETNPIEEWQHIEQLKGSAEGSIRYPAWNGIISQEVLDYLSSYINRRI
modifications: fused to CIDD pair
B4: Flp 27: Flp (SEQ ID NO: 1) split into aa 1-27 and 28-423, fused to CIDD pair (protein)
chain 1: MSQFDILCKTPPKVLVRQFVERFERPS
chain 2: GEKIASCAAELTYLCWMITHNGTAIKRATFMSYNTIISNSLSFDIVNKSLQFKYKTQKATILEASLKKLIPAWEFTIIPYNGQKHQSDITDIVSSLQLQFESSEEADKGNSHSKKMLKALLSEGESIWEITEKILNSFEYTSRFTKTKTLYQFLFLATFINCGRFSDIKNVDPKSFKLVQNKYLGVIIQCLVTETKTSVSRHIYFFSARGRIDPLVYLDEFLRNSEPVLKRVNRTGNSSSNKQEYQLLKDNLVRSYNKALKKNAPYPIFAIKNGPKSHIGRHLMTSFLSMKGLTELTNVVGNWSDKRASAVARTTYTHQITAIPDHYFALVSRYYAYDPISKEMIALKDETNPIEEWQHIEQLKGSAEGSIRYPAWNGIISQEVLDYLSSYINRRI
modifications: fused to CIDD pair
B5: VCre 172: VCre (SEQ ID NO: 16) split into aa 1-172 and 173-380, fused to CIDD pair (protein)
chain: MIENQLSLLGDFSGVRPDDVKTAIQAAQKKGINVAENEQFKAAFEHLLNEFKKREERYSPNTLRRLESAWTCFVDWCLANHRHSLPATPDTVEAFFIERAEELHRNTLSVYRWAISRVHRVAGCPDPCLDIYVEDRLKAIARKKVREGEAVKQASPFNEQHLLKLTSLWYRSDKLLLRRNLALLAVAYESMLRASELANIRVSDMELAGDGTAILTIPITKTNHSGEPDTCILSQDVVSLLMDYTEAGKLDMSSDGFLFVGVSKHNTCIKPKKDKQTGEVLHKPITTKTVEGVFYSAWETLDLGRQGVKPFTAHSARVGAAQDLLKKGYNTLQIQQSGRWSSGAMVARYGRAILARDGAMAHSRVKTRSAPMQWGKDEKD
modifications: split at 172/173; CIDD pair fusions lack entries
B6: VCre 277: VCre (SEQ ID NO: 16) split into aa 1-277 and 278-380, fused to CIDD pair (protein)
chain: B5 chain
modifications: split at 277/278; CIDD pair fusions lack entries
B7: VCre 82: VCre (SEQ ID NO: 16) split into aa 1-82 and 83-380, fused to CIDD pair (protein)
chain: B5 chain
modifications: split at 82/83; CIDD pair fusions lack entries
B8: VCre 269: VCre (SEQ ID NO: 16) split into aa 1-269 and 270-380, fused to CIDD pair (protein)
chain: B5 chain
modifications: split at 269/270; CIDD pair fusions lack entries

Test system: pCAG-FRT-Neo-FRT-GFP reporter
Test: Gibberellin ester (GIB)-induced split-Flp rejoinder, GFP reporter
Type: cell-based, human
Conditions: GAI/GID1 CIDD pair; with vs without GIB
Procedure: Full length FlpO and split Flp vectors were tested for induction of recombinase activity on a pCAG-FRT-Neo-FRT-GFP reporter with and without the presence of gibberellin ester (GIB).
FIGS. 43A-43E show results of gene expression of different split-recombinase Flp (SEQ ID NO: 1) or B3 fragments (SEQ ID NO: 19). […] FIGS. 43B-43E show the GFP expression levels of different amino acid residue of split sites (S) of Flp amino acid sequence (top; shown in blue) and amino acid residue of split sites (S) of B3 amino acid sequence (below, shown in orange).
DNA was transfected into the human embryonic kidney cell line (HEK293FT) using a polyethylenimine (PEI) protocol. Cells were plated onto 48-(2504) or 96-well (1004) plates the day prior to transfection (200,000 cells/mL), such that the cells were 50-70% confluent the day of transfection. Cells were kept in a humidified incubator at 37° C. and 5% CO2 and maintained in DMEM medium (Corning) with 10% Heat Inactivated Fetal Bovine Serum (Life Technologies), 50 U.I./mL penicillin/50 μg/mL streptomycin (Corning), 2 mM glutamine (Corning) and 1 mM sodium pyruvate (Lonza). PEI stocks were made from linear polyethylenimine (Polysciences 23966-2) and were dissolved at a concentration of 0.323 g/L in deionized water with the assistance of concentrated hydrochloric acid and sodium hydroxide and then filtered sterilized (0.24 μm). PEI stocks were stored at −80° C. until use and warmed to room temperature prior to usage. For 48-well plate transfections, DNA (1000 ng, 50 ng/4) was dissolved and brought up to a volume of 50 μL using 0.15 M sodium chloride (NaCl, Fisher Scientific). DNA-NaCl solutions were then mixed with 50 μL of a PEI-NaCl mixture (8 uL PEI: 42 uL NaCl). These solutions were then incubated at room temperature for ten minutes and 25 μL was carefully dropped into individual wells of HEK293FT cells (250 ng DNA/well). Similarly, for 96-well plate transfections, DNA (500 ng, 50 ng/4) was dissolved and brought up to a volume of 25 μL using 0.15 M sodium chloride (NaCl). DNA-NaCl solutions were then mixed with 25 μL of a PEI-NaCl (4 uL PEI: 21 uL NaCl) mixture. These solutions were then incubated at room temperature for ten minutes and 10 μL was carefully dropped into individual wells of HEK293FT cells (100 ng DNA/well). Electronic space-adjustable multichannel pipettors (Integra Biosciences) were utilized throughout the process for rapid aspiration and dispensing of molecular and cellular reagents. […]
(§1) Two days post-transfection and after trypsinization (0.05% Trypsin/0.53 mM EDTA, Corning) and resuspension, all HEK293FT cell populations were analyzed using a Becton Dickinson (BD) LSRFortessa SORP flow cytometer with HTS. […]

Molecule | GFP expression of split-Flp by split site (S)
B1 | result in GFP expression in the presence of GIB
B2 | result in GFP expression in the presence of GIB
B3 | result in GFP expression in the presence of GIB
B4 | result in GFP expression in the presence of GIB

Test system: VloxP
Test: Gibberellin ester (GIB)-induced split-VCre rejoinder, GFP reporter
Type: cell-based, human
Conditions: GAI/GID1 CIDD pair; with vs without GIB
Procedure: FIGS. 42A-42B show results of gene expression of different split-recombinase Cre (SEQ ID NO: 74) or VCre fragments (SEQ ID NO: 16).
DNA was transfected into the human embryonic kidney cell line (HEK293FT) using a polyethylenimine (PEI) protocol. Cells were plated onto 48-(2504) or 96-well (1004) plates the day prior to transfection (200,000 cells/mL), such that the cells were 50-70% confluent the day of transfection. Cells were kept in a humidified incubator at 37° C. and 5% CO2 and maintained in DMEM medium (Corning) with 10% Heat Inactivated Fetal Bovine Serum (Life Technologies), 50 U.I./mL penicillin/50 μg/mL streptomycin (Corning), 2 mM glutamine (Corning) and 1 mM sodium pyruvate (Lonza). PEI stocks were made from linear polyethylenimine (Polysciences 23966-2) and were dissolved at a concentration of 0.323 g/L in deionized water with the assistance of concentrated hydrochloric acid and sodium hydroxide and then filtered sterilized (0.24 μm). PEI stocks were stored at −80° C. until use and warmed to room temperature prior to usage. For 48-well plate transfections, DNA (1000 ng, 50 ng/4) was dissolved and brought up to a volume of 50 μL using 0.15 M sodium chloride (NaCl, Fisher Scientific). DNA-NaCl solutions were then mixed with 50 μL of a PEI-NaCl mixture (8 uL PEI: 42 uL NaCl). These solutions were then incubated at room temperature for ten minutes and 25 μL was carefully dropped into individual wells of HEK293FT cells (250 ng DNA/well). Similarly, for 96-well plate transfections, DNA (500 ng, 50 ng/4) was dissolved and brought up to a volume of 25 μL using 0.15 M sodium chloride (NaCl). DNA-NaCl solutions were then mixed with 25 μL of a PEI-NaCl (4 uL PEI: 21 uL NaCl) mixture. These solutions were then incubated at room temperature for ten minutes and 10 μL was carefully dropped into individual wells of HEK293FT cells (100 ng DNA/well). Electronic space-adjustable multichannel pipettors (Integra Biosciences) were utilized throughout the process for rapid aspiration and dispensing of molecular and cellular reagents. A Countess II image-based cell counter (Life Technologies) was used for measuring human cell population densities.
Rapamycin analog (Clontech A/C heterodimerizer AP21967, 0.5 mM) was used as a 1000× stock for chemical induction experiments. […]
as §1

Molecule | GFP expression of split-VCre by split site (S)
B5 | result in GFP expression in the presence of GIB
B6 | result in GFP expression in the presence of GIB
B7 | result in GFP expression in the presence of GIB
B8 | result in GFP expression in the presence of GIB
